Test results: article PMC9048679, “Correlation Between Improved Mating Efficiency and Weakened Scaffold-Kinase Interaction in the Mating Pheromone Response Pathway Revealed by Interspecies Complementation” (Frontiers in Microbiology, 2022)

T1: KlSte7 (Ste7 of Kluyveromyces lactis), Gal4-BD fusion (K. lactis, UniProt Q6CSZ8 1-504)
T1 construct: Ste7 (MAPKK) of Kluyveromyces lactis, KEGG KLLA0_C16577g; ORF cloned into the EcoRI site of pGBKT7; source: yeast two-hybrid fusion (pGBKT7, transformed into Y187, diploid with AH109)
T1 sequence (looked up): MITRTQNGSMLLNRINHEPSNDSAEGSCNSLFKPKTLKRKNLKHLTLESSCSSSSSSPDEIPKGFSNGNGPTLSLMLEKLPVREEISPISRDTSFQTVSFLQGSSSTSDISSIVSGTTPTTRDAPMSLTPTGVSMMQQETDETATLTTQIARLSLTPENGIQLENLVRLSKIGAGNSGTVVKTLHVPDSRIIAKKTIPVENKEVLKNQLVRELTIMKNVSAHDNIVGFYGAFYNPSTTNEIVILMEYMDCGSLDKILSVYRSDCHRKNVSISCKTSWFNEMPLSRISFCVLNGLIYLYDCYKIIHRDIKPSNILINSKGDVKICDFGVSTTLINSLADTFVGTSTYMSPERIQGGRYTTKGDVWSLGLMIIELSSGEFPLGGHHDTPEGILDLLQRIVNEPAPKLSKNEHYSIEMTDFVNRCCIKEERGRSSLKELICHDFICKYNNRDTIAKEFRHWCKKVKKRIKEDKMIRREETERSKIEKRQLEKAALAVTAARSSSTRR

T2: KmSte7 (Ste7 of Kluyveromyces marxianus), Gal4-BD fusion (K. marxianus, UniProt A0ABX6F0V6 1-494)
T2 construct: Ste7 (MAPKK) of Kluyveromyces marxianus, KEGG KLMA_70246; ORF cloned into the EcoRI site of pGBKT7; source: yeast two-hybrid fusion (pGBKT7, transformed into Y187, diploid with AH109)
T2 sequence (looked up): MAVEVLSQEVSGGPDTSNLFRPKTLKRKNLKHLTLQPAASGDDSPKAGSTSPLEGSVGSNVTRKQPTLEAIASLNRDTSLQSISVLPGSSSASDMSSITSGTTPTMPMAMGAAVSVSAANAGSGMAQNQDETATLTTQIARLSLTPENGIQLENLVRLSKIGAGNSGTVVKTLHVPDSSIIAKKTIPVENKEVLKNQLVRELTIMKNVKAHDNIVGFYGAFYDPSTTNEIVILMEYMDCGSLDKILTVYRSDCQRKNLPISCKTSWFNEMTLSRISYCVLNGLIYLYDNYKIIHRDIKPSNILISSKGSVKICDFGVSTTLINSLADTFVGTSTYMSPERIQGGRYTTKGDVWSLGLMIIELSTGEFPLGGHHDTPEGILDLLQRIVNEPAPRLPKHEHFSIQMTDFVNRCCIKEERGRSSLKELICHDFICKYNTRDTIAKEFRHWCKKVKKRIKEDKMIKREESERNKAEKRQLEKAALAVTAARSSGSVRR


Tests used:
Experiment in all cases: two-hybrid; Matchmaker GAL4 system; Ste5 forms on Gal4-AD (pGADT7, AH109), Ste7 orthologs on Gal4-BD (pGBKT7, Y187), diploids on SC-Leu-Trp; quantitative β-galactosidase assay of cell lysate with ONPG; units of the same BD-Ste7 with void pGADT7 subtracted; mean of three colonies
[1] = molecular target: KmSte7 (Ste7 of Kluyveromyces marxianus), Gal4-BD fusion (K. marxianus)
[2] = molecular target: KlSte7 (Ste7 of Kluyveromyces lactis), Gal4-BD fusion (K. lactis) (UniProt Q6CSZ8)
[3] = molecular target: T1, KlSte7 (Ste7 of Kluyveromyces lactis), …; details: partners not purified
[4] = molecular target: T2, KmSte7 (Ste7 of Kluyveromyces …); details: partners not purified

| strength of the interaction (units of β-galactosidase) (units of β-galactosidase) [1] | strength of the interaction (units of β-galactosidase) (units of β-galactosidase) [2] | strength of the interaction (units of β-galactosidase) [3] | strength of the interaction (units of β-galactosidase) [4] | Molecule |
| --- | --- | --- | --- | --- |
| 14.9 | 31.8 | – | – | KmSte5-KlBD (KmSte5 with its Ste7-binding region replaced by that of KlSte5), Gal4-AD fusion (from UniProt A0ABX6ETE1 1-659) |
| 11 | 20.3 | – | – | KlSte5-KmBD (KlSte5 with its Ste7-binding region replaced by that of KmSte5), Gal4-AD fusion (from UniProt A0ABX6ETE1 660-763) |
| – | – | 30 units of β-galactosidase | 22.8 units of β-galactosidase | KmSte5 (Ste5 of Kluyveromyces marxianus), Gal4-AD fusion (natural protein, K. marxianus, UniProt A0ABX6ETE1 1-763, looked up, Ste5 of Kluyveromyces marxianus, KEGG KLMA_20171; probably the whole ORF; also called natural KmSte5; source: yeast two-hybrid fusion (pGADT7, transformed into AH109, diploid with Y187)) MNSQEILFQLTNVGSTPVSSKNDTMTTPTSGSNTSSPRRWTELFSKKRAKTPSISTPSTSSSAVSSLHDGSPVRPGSKQSFRHFNIDSALQYPPVMQSPESYHSAGNGNGSGHGNVQVGKKPHRRGGNKSWKNEKCCICRDLCSFKGSTERVIILQCNHMCHEDCLMVSLNPVSKTFDLYDALPKCQMCSMLCVPSQEDMKQRLRNHLLTVNSSSSDQLSSAIPQVQSQLKPHNSPENTRTGIGPLAPPPPPLSMRNAVKTTPTNRDIRLSFASSLKPPVFVTPSVRDSWRLPRASSIKRRSNNYRGSTISALSSITSSSSLYNDSQLVCSLHIQRQYFMQAFLTSFEEIKPWEIDSRYGLLRLIDYFLISLDDQGFKQCCCYLFSEYLLLCQPSSKASSNVLQFSSYRFLQLNSPANIELIDATTLELKAKTGERVRIKPFNSDTKSLEKWITAFFDPTLTFGNLDFTSIPLPDFVSAMPSADDSRTIIVRRQNTINETIVTAGPRDSTLFTSISSILSIKRSTPRELNVILQVDRRKLKSENLITIKNVLSALTWKYHDFNCCIVGVDGLIVKIGGAREILDSWAEISDAGTQPFSPALLYKTWYKERGKVCNNAGVLVISNASMETGKTCLFHDYRMFANVGKRHVNELKIKVGFLNVDYTNKIKELVEIQDWNELLEAVSYSFNINFDDDDDDDDDEGDSDTSDSFSVGSSEFNKSLNSDNERLVRPPSPTSFEDIEADSHSQFDDDSELQHSIIYDYL |
| – | – | 13.7 units of β-galactosidase | 8.13 units of β-galactosidase | KlSte5 (Ste5 of Kluyveromyces lactis), Gal4-AD fusion (natural protein, K. lactis, UniProt Q6CKB4 1-746, looked up, Ste5 of Kluyveromyces lactis, KEGG KLLA0_F12023g; probably the whole ORF; source: yeast two-hybrid fusion (pGADT7, transformed into AH109, diploid with Y187)) MSRGNTSSMNSQDILFQLTNVGSSPVPKLDTGSTSGSNTSSPRRWTELFSKKRVKTPSVGTPSTASSMISSFYDSSPIRPVSKQHPKHLLVDPIMPPPPIMLSPIGHETLGKKPTRKNGNKSWKNERCCICGDLCSFKGSNEKVIPLECNHMCHEDCLMVSLRPLPHKSNLYDALPKCDICSMSCIPGQEDMRQKVRSHLLTLPDDGESVGLEPYNPQENYERIKLCDADLLPKHSGNDETFPHLQTTRTTARNNDIRLSFAFSLKPGKTVTPSLRDSIRLHRSRSIKRRSNFRGSTVSGLSSIVSSSSKDDCQLPSLHVQRQYFIQAFLNSFSEVKPWEIDAKYGLLRLIDNFLISLDGINFQHQVCYLFSEYLLVCRPSPATSANVLQFSSYRCFQLNNPPELDLLDATTLESKSRSGERILIKPYGLDTKALEKWITALFDLTLPFGNYDFTSIKVPEFVACIPSTNDTGTIIVRRQSTLNETLIPKTIRDSSVLTSISSILSIKRATPNELNLVLQLDKRKTNEDNIVSIKNVILALTWKFSTFNCCIVDVEGMVINCGTANDVLNSLAGPIKSNGNQPFSPDLLHQLWYRQKQKICKNVGVVVLSNSSMENGKSCLFSDYRIFADAGKRHPNELKIKVGFLNVDYSDNIKELVEIQDWNELLEAVAYSFNLSFDDDLDSSDCVSTSSSDFEVDSVPDKNRTFRLSSPISWENHVQADLTGSMNGISESIEDRQSNHMYDYL |
